Measured values as given in patent publication EP1073891B1, “METHOD OF PREDICTING RECEPTOR MODULATING ACTIVITY” (Duke University, priority 1998, dated 1999).

Columns and labels:
[1] = biological target: T1, ERα (Homo sapiens, UniProt P03372); test: Phage ELISA / fingerprint on ER immobilized on biotinylated ERE (Examples 2.3-2.5); format: binding; set-up: purchased PanVera Corporation, Madison, WI; key to binding activity, ERα and buffer / binding activity, ERα and estradiol / binding activity, ERα and tamoxifen / binding of peptide, Class Specific Fingerprint on ERα: semiquantitative scale of 0 to 7+; 1+: semiquantitative scale of 0 to 7+; 2+: semiquantitative scale of 0 to 7+; 3+: semiquantitative scale of 0 to 7+; 4+: semiquantitative scale of 0 to 7+; 5+: semiquantitative scale of 0 to 7+; 6+: semiquantitative scale of 0 to 7+; semiquantitative scale of 0 to 7+; settings: for binding activity, ERα and estradiol: ERα and estradiol (1 µM); for binding activity, ERα and tamoxifen: ERα and tamoxifen (4-OH tamoxifen, 1 µM)
T1 sequence (P03372 1-595): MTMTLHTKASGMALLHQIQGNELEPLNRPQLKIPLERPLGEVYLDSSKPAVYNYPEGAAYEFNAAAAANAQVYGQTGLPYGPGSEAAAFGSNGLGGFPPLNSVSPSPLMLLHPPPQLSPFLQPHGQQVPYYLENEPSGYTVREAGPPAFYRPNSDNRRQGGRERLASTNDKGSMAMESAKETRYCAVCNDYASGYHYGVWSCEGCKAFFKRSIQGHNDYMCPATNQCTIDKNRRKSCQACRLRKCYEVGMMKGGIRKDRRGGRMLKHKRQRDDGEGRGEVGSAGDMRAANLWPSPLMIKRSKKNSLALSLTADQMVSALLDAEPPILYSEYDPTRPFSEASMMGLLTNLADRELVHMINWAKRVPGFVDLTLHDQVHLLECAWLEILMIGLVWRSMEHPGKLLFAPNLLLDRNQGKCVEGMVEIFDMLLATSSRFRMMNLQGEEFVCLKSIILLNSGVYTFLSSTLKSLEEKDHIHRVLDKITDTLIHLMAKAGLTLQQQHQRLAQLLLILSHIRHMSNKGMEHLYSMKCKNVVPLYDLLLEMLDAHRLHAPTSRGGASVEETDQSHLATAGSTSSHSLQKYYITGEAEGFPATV

[2] = biological target: ERβ (Homo sapiens, UniProt Q92731); test: as above; format: binding; set-up: purchased PanVera Corporation, Madison, WI; key: semiquantitative scale of 0 to 7+; 1+: semiquantitative scale of 0 to 7+; 2+: semiquantitative scale of 0 to 7+; 3+: semiquantitative scale of 0 to 7+; 4+: semiquantitative scale of 0 to 7+; 5+: semiquantitative scale of 0 to 7+; 6+: semiquantitative scale of 0 to 7+; semiquantitative scale of 0 to 7+; settings: for binding activity, ERβ and Estradiol: ERβ and Estradiol (1 µM); for binding activity, ERβ and tamoxifen: ERβ and tamoxifen (4-OH tamoxifen, 1 µM)
Chain of ERβ (Q92731 whole entry): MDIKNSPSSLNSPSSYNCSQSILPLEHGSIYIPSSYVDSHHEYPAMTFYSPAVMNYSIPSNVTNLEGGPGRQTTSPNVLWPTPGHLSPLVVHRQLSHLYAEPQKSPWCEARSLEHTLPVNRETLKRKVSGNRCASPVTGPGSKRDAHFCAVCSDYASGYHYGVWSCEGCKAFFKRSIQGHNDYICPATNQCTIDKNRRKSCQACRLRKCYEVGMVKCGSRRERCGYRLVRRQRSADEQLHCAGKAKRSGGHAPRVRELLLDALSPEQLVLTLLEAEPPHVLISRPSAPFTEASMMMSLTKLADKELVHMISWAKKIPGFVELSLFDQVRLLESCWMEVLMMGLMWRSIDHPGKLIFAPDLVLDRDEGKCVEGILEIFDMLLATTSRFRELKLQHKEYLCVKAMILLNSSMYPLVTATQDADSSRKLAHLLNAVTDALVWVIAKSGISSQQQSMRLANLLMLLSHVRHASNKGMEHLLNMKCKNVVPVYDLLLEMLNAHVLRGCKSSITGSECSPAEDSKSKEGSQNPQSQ

Substance | binding activity, ERα and buffer [1] | binding activity, ERα and estradiol [1] | binding activity, ERα and tamoxifen [1] | binding activity, ERβ and Estradiol [2] | binding activity, ERβ and buffer [2] | binding activity, ERβ and tamoxifen [2] | further results
SSVFTIMDGKVALSR [Peptide 1t-β] | 3+ | 3+ | 7+ | 2+ | 3+ | 7+ | 
SRNECIGPWCLTISR [Peptide 13t-β] | 3+ | 2+ | 4+ | 7+ | 7+ | 7+ | 
SSLKCLLQSSPQKQPFCSR [Peptide 19E-β] | 4+ | 5+ | 3+ | 7+ | 4+ | 2+ | 
SSVASREWWVRELSR [Peptide 15t-β] | 3+ | 2+ | 5+ | 2+ | 6+ | 7+ | 
SRECVGGWCLAELSR [Peptide 18b-β] | 2+ | 2+ | 2+ | 7+ | 7+ | 7+ | 
SRNLLCLLDQEACSR [Peptide 17E-β] | 5+ | 4+ | 4+ | 7+ | 3+ | 1+ | 
SREWEDGFGGRWLSR [Peptide 4t-β] | 2+ | 2+ | 3+ | 7+ | 7+ | 7+ | 
SSPTGHRLLESLLLNSNSR [Peptide 8E-β] | 4+ | 6+ | 3+ | 7+ | 5+ | 1+ | 
SSDLHRDCLGVWCLSR [Peptide 17t-β] | 1+ | 2+ | 2+ | 7+ | 7+ | 7+ | 
SYSKEWFEERLNSR [Peptide 4b-β] | 4+ | 3+ | 3+ | 3+ | 7+ | 3+ | 
SSLKCLLNSNFCSR [Peptide 18E-β] | 5+ | 6+ | 5+ | 7+ | 4+ | 1+ | 
SSGLPPNFERMLKSR [Peptide 6b-β] | 5+ | 3+ | 3+ | 2+ | 6+ | 2+ | 
SSWPGAEWFKEQLSR [Peptide 20b-β] | 4+ | 3+ | 4+ | 4+ | 7+ | 5+ | 
SRDWRSGFLYELLSR [Peptide 4E-β] | 6+ | 5+ | 6+ | 7+ | 5+ | 3+ | 
SSQVWPGPWRLVESR [Peptide 14b-β] | 2+ | 2+ | 3+ | 7+ | 7+ | 7+ | 
S R T W E S P L G T W E W S R (SRTWESPLGTWEWSR) [#13 ER] |  |  |  |  |  |  | binding of peptide, Class Specific Fingerprint on ERα ([1]; 4-OH Tamoxifen present during binding): 6+; binding of peptide, Class Specific Fingerprint on ERα ([1]; 16a-OH Estrone present during binding): 2+; binding of peptide, Class Specific Fingerprint on ERα ([1]; Clomiphene present during binding): 5+; binding of peptide, Class Specific Fingerprint on ERα ([1]; DES present during binding): 3+; binding of peptide, Class Specific Fingerprint on ERα ([1]; Estradiol present during binding): 2+; binding of peptide, Class Specific Fingerprint on ERα ([1]; Estriol present during binding): 2+; binding of peptide, Class Specific Fingerprint on ERα ([1]; ICI 182,780 present during binding): 2+; binding of peptide, Class Specific Fingerprint on ERα ([1]; Nafoxidine present during binding): 2+; binding of peptide, Class Specific Fingerprint on ERα ([1]; Premarin present during binding): 2+; binding of peptide, Class Specific Fingerprint on ERα ([1]; Progesterone present during binding): 4+; binding of peptide, Class Specific Fingerprint on ERα ([1]; Raloxifene present during binding): 2+; binding of peptide, Class Specific Fingerprint on ERα ([1]; buffer present during binding): 5+

Continued, in another order:

binding activity, ERα and buffer [1] | binding activity, ERα and estradiol [1] | binding activity, ERα and tamoxifen [1] | binding activity, ERβ and Estradiol [2] | binding activity, ERβ and buffer [2] | binding activity, ERβ and tamoxifen [2] | Substance | further results
6+ | 6+ | 5+ | 7+ | 5+ | 2+ | SSLQAGSWLMHYLRGGDSR [Peptide 23E-β] | 
3+ | 3+ | 6+ | 3+ | 3+ | 7+ | SSRLVPHSFWLDGLMHGSR [Peptide 21t-β] | 
4+ | 4+ | 6+ | 6+ | 6+ | 7+ | SSDLYSQMREFFQINLSR [Peptide 23t-β] | 
6+ | 7+ | 3+ | 7+ | 7+ | 3+ | SSKLYCLLDESYCSR [Peptide 21b-β] | 
4+ | 3+ | 3+ | 7+ | 6+ | 3+ | SSTTWRCPEWYCGSR [Peptide 30E-β] | 
2+ | 2+ | 3+ | 6+ | 7+ | 7+ | SRPGCLRGVWCLADTPPSR [Peptide 20t-β] | 
5+ | 3+ | 4+ | 6+ | 4+ | 2+ | SSYEIPKWALQWLSR [Peptide 34E-β] | 
3+ | 4+ | 3+ | 7+ | 7+ | 5+ | SSYDWQCPSWYCPAPPSSR [Peptide 29E-β] | 
4+ | 5+ | 3+ | 7+ | 3+ | 1+ | SSAGLLEDMLRSRSR [Peptide 21E-β] | 
